Reference: patent US20170306005A1 (NASCIENT, published 2017)

Legend:
Human FGB-rCd4 = target: T1, Human FGB-rCd4; assay: ELISA (DELFIA), antigen coated on the well, purified Fab at 50 nM, detected with anti-kappa or anti-lambda mAb and Europium-conjugated anti-mouse mAb
T1 construct: Not the same construct as m1, which has the FBG at the C terminus; also called human TNC FBG-rCD4; human tenascin-C FBG-rCd4-His (FBG at the N terminus of the rat Cd4 tag); not shown: rat Cd4 (domains 3 and 4) tag, the C-terminal His6 tag and the vector-derived junction residues of pBIOCAM4
T1 chain: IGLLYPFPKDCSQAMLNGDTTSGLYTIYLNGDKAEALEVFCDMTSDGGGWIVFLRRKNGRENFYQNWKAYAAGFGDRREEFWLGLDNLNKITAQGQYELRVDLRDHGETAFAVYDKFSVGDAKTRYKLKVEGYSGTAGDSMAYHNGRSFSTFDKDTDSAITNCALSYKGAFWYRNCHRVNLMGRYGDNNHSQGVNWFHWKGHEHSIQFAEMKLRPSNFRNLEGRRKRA

[1] = target: T2, mouse tenascin-C rCd4-His-FBG (rat; mouse, UniProt P05540 207-392, limits assumed); assay: SPR, parental antibody
T2 construct: domain: domains 3 and 4; C-terminal FBG fusion; biotinylated in the ELISA screen; also called Mu TNC; mouse TNC rCd4-His-FBG; not shown: 6His tag
T2 sequence (chain (part 1 of 2)): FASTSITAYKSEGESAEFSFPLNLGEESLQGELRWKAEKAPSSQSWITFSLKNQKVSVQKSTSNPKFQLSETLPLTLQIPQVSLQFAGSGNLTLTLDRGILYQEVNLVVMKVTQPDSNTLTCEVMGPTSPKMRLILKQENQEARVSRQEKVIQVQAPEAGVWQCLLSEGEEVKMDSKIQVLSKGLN
T2 sequence (chain (part 2 of 2)): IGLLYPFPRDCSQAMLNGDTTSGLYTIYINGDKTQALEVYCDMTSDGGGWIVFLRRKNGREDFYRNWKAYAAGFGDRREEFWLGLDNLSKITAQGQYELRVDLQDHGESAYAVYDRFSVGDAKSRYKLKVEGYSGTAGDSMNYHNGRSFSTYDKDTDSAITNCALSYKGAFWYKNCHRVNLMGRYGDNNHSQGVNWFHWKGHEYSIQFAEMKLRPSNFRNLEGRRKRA

[2] = target: T3, human tenascin-C rCd4-His-FBG (rat; human, UniProt P05540 207-392, limits assumed); assay: SPR, 25 C; format not stated; SPR at 25 C
T3 construct: domain: domains 3 and 4; C-terminal FBG fusion; biotinylated in the ELISA and HTRF screens; also called Hu TNC; human TNC rCd4-His-FBG; not shown: 6His tag
T3 sequence (chain (part 1 of 2)): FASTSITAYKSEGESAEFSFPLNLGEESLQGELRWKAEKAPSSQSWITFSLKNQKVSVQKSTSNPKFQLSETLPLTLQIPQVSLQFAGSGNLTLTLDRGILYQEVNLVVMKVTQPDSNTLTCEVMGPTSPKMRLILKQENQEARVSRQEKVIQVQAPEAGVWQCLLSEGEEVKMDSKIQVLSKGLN
T3 sequence (chain (part 2 of 2)): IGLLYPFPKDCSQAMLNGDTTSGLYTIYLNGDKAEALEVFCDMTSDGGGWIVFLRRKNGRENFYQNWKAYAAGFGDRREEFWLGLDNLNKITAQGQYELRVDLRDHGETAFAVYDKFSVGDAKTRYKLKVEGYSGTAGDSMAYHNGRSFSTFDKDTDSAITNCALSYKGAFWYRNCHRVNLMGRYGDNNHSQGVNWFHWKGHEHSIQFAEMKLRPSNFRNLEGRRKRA

[3] = target: T3, human tenascin-C rCd4-His-FBG; assay: SPR, captured Fab, 25 C
Protocol: (§1) Experiments were performed using a BIAcore T100 instrument with CM5 sensor chip according to the protocol provided with the Human Fab Capture Kit (GE, 28-9583-25). […] After reference signal subtraction, the data was fitted to a global 1:1 fit using the T100 BIAevaluation software (FIGS. 6 a-d).

[4] = target: T2, mouse tenascin-C rCd4-His-FBG; assay: SPR, captured Fab, 25 C
Protocol: as §1

human Fc-His-FBG = target: T4, human Fc-His-FBG (human, UniProt P24821 1974-2201); assay: cell-based or functional assay
T4 sequence: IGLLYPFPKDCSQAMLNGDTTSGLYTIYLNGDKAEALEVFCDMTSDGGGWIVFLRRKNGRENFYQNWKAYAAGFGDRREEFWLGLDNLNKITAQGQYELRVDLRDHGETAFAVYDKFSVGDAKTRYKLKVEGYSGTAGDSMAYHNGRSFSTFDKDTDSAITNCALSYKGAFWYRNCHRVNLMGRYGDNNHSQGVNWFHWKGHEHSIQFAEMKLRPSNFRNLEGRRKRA

[5] = target: T3, human tenascin-C rCd4-His-FBG; assay: SPR off-rate screen, captured IgG4 supernatant, 25 C
In short: (§2)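 SPR at 25 °C: IgG4 (S241P) from culture supernatant, diluted 1:2 in 2×PBS-T, captured on anti-human Fc surface; antigen injected at a fixed 15 nM (human and mouse TNC rCd4-His-FBG) or 100 nM (human TNR rCd4-His-FBG), 30 μl/min. Association 1 min, dissociation 5 min; off-rates from reference-subtracted 1:1 fits.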

[6] = target: T2, mouse tenascin-C rCd4-His-FBG; assay: as above
In short: as §2

[7] = target: T3, human tenascin-C rCd4-His-FBG; assay: SPR, captured purified IgG4, 37 C
Protocol: (§3) Detailed kinetic parameters were evaluated for the 9 prioritised IgG4 antibodies. Binding characteristics were determined for interaction with human, rat and dog TNC rCD4-His-FBG, and human TNR rCD4-His-FBG. Kinetic assays followed essentially the same protocols as for the off-rate determinations described above, with some modifications as follows. […] Purified anti-FBG IgG4 was diluted to a concentration of 3.5 nM in PBS, pH 7.4, 0.05% Tween-20 and injected into FC2 at a flow rate of 10 μl/min, 60 s contact time. […] Antigens were prepared by doubling dilution in PBS, pH 7.4, 0.05% Tween-20 (highest concentration 100 nM except mouse rCD4-His-FBG which was 7 nM). Assays were performed at 37° C. (30 μl/min, 120 s contact time; mouse rCD4-His-FBGFBG 10 μl/min, 60 s contact time), with both the flow cell and injection chamber equilibrated to this temperature. As before, kinetic parameters were determined by reference cell subtraction and fitting the sensogram experimental data assuming a 1:1 interaction using BIAevaluation software (GE, BR-1005-97).

[8] = target: T2, mouse tenascin-C rCd4-His-FBG; assay: SPR, captured purified IgG4, 37 C
Protocol: as §3

[9] = target: T5, human tenascin-R rCd4-His-FBG (rat; human, UniProt P05540 207-392, limits assumed); assay: SPR off-rate screen, captured IgG4 supernatant, 25 C; SPR off-rate screen, native antigen at 100 nM, IgG4 in supernatant, 25 C
T5 construct: domain: domains 3 and 4; C-terminal FBG fusion; also called Hu TNR; human TNR rCd4-His-FBG; not shown: 6His tag
T5 sequence (chain (part 1 of 2)): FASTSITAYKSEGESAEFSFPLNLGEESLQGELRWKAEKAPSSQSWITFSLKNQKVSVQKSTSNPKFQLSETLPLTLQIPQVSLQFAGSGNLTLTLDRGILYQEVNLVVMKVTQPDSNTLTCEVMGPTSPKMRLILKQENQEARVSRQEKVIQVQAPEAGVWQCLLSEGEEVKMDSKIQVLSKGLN
T5 sequence (chain (part 2 of 2)): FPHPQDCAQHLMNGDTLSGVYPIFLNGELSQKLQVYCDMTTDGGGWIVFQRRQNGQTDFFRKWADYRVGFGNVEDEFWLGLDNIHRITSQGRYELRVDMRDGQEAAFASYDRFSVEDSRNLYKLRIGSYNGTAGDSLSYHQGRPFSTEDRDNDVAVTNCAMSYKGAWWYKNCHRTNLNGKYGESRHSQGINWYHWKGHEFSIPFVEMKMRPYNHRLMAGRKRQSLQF
Protocol: The 31 scFv of interest were sub-cloned into a human IgG4 expression vector for generation of antibodies as human IgG4 with a hinge-stabilising mutation (S241P; Angal et al, 1993). […] Briefly, surface plasmon resonance (SPR) experiments were performed using a BIAcore T100 instrument and followed the protocol according to the Human antibody capture kit protocol (GE, BR-1008-39). For off-rate screening, 10,000 response units (RU) of anti-human Fc IgG (GE, BR-1008-39) was immobilised on flow-cells (FC1 and FC2) of a Series 5 CM5 dextran sensor chip (BR-1005-30) using EDC/NHS cross-linking chemistry according to the amine coupling kit protocol (GE, BR-1000-50). Culture supernatants containing expressed IgG4 were diluted 1:2 with 2×PBS-T and injected into FC2 (flowrate 5 μl/min, 60 s contact time) to enable antibody capture at 25° C. […] A fixed concentration of antigen (15 nM of human and mouse TNC rCd4-His-FBG and 100 nM of human TNR rCd4-His-FBG) was injected with a flow-path via FC 1 (reference flow cell) and FC 2 (antibody capture flow cell), with a flow rate of 30 μl/min, and the association and dissociation phases measured over 1 and 5 min time periods, respectively. […] Off rates were determined by reference cell subtraction and fitting the sensogram experimental data assuming a 1:1 interaction using BIAevaluation software (GE, BR-1005-97).

[10] = target: T6, human His-FBG citrullinated with PAD2 (human, UniProt P24821 1974-2201, arginines citrullinated by peptidylarginine deiminase 2; positions not stated); assay: SPR, captured IgG4, 25 C, mean of 3
T6 construct: also called His-FBG + PAD2; citrullinated His-FBG; not shown: His tag
T6 sequence: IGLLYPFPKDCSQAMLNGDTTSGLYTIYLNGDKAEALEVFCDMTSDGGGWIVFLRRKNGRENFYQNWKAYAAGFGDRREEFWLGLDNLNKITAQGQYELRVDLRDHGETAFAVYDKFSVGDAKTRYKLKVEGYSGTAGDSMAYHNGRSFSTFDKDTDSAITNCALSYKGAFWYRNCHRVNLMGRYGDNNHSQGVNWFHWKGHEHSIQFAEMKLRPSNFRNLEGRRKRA
Protocol: (§4) Purified human His-FBG was citrullinated using either peptidylarginine deiminase 2 (PAD2; MQ-16.201-2.5, Modiquest, NL) or peptidylarginine deiminase 4 (PAD4; MQ-16.203-2.5, Modiquest, NL) according to the supplier's instructions. […] Aliquots of His-FBG in deimination buffer were incubated for 2 h at 37° C. in the absence of added PAD enzyme, for use as non-citrullinated control protein. Citrullinated and unmodified His-FBG proteins were used in SPR experiments as described below.
(§5) SPR experiments were performed on a BIAcore 3000 instrument. Anti-human IgG (GE Healthcare) was covalently coupled to the surface of a CM5 sensor chip using amino coupling chemistry. […] The flow rate was 5 μl/min in the immobilization experiments and 20 μl/min for kinetic analyses. The sensor chip surface was regenerated using 3 M MgCl₂. Data were analysed using BIAevaluation program 4.1 (GE Healthcare).

human His-FBG = target: T7, human His-FBG (human, UniProt P24821 1974-2201); assay: SPR, captured IgG4, 25 C, mean of 3
T7 construct: non-citrullinated control, incubated in deimination buffer without PAD enzyme; also called unmodified His-FBG; not shown: His tag
T7 sequence: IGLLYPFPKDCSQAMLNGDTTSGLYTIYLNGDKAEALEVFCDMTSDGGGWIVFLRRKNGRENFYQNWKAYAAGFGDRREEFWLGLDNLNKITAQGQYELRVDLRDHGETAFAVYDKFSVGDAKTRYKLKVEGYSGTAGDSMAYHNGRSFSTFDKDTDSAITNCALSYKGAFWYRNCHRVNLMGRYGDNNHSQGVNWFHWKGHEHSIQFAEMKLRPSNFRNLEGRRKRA
Protocol: as §4, §5

[11] = target: T8, human His-FBG citrullinated with PAD4 (human, UniProt P24821 1974-2201, arginines citrullinated by peptidylarginine deiminase 4; positions not stated); assay: SPR, captured IgG4, 25 C, mean of 3
T8 construct: also called His-FBG + PAD4; citrullinated His-FBG; not shown: His tag
T8 sequence: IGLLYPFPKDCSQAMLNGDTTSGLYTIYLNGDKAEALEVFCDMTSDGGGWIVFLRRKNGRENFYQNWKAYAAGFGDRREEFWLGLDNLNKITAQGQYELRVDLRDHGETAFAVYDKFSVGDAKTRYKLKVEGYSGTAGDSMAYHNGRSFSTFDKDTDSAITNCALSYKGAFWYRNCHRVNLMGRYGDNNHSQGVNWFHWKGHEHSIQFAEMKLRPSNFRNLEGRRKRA
Protocol: as §4, §5

B1: Fab 2A5 (Fab, V domains shown)
VH: EVRLVQSGAEVKKPGASVKVSCKVSGYTLTELSMHWVRQAPGKGLEWMGGFDPEDGETIYAQKFQGRVTMTEDTSTDTAYMELSSLRSEDTAVYYCATAQKETYALTYWGQGTLVTVSS
VL: DIQMTQSPASLPTSVGDRVTITCRASQYIQGFLNWYQQKPGKAPRLLIYAASTLQDGVPSRFSGSGYGTDFTLTISSLQPEDFATYYCQQSYSTPWTFGQGTKVEIKR
notes: monomeric Fab
binding result (Human FGB-rCd4): binds
fold difference in affinity between human and mouse rCd4-his-FBG [1]: 6.9 fold
Kd [2]: 15 nM
Kd [3]: 11.4 nM
koff [3]: 0.00563 s⁻¹
kon [3]: 496000 M⁻¹ s⁻¹
Kd [4]: 78.6 nM
koff [4]: 0.0347 s⁻¹
kon [4]: 441000 M⁻¹ s⁻¹
IC50, inhibition of Fc-His-HuFBG-evoked IL-8 release, THP1-Blue cells (human Fc-His-FBG): 28.5 nM
IC50, inhibition of Fc-His-HuFBG-evoked alkaline phosphatase, THP1-Blue cells (human Fc-His-FBG): 20.6 nM

B2: B12 human IgG4 (antibody, V domains shown)
VH: QVQLVESGGGLVQPGRSLRLSCAASGFTFDDYAMHWVRQAPGKGLEWVSGISGSGGSTYYADSVKGRFTISRDNAKNSLYLQMNSLRAEDTALYYCAKDISAVPDTFDIWGQGTMVTVSS
VL: DIQMTQSPASLPTPVGDRVTITCRASQYIQGFLNWYQQKPGKAPKLLIYDASNLETGVPSRFSGSGSGTDFTLTISSLQPEDFATYYCQQSYSTPQTFGQGTKVDIKR
notes: human IgG4 with hinge S241P; also called B12 parent; B12-hIgG4
koff [5]: 0.00015 s⁻¹
koff [6]: 0.03 s⁻¹
Kd [7]: 0.24 nM
koff [7]: 0.00112 s⁻¹
kon [7]: 4.71e+06 M⁻¹ s⁻¹
Kd [8]: 4.5 nM
koff [8]: 0.00138 s⁻¹
kon [8]: 300000 M⁻¹ s⁻¹
koff [9]: 0.1 s⁻¹
Kd [10]: 0.32 nM
koff [10]: 0.00096 s⁻¹
kon [10]: 3e+06 M⁻¹ s⁻¹
Kd (human His-FBG): 0.17 nM
koff (human His-FBG): 0.00068 s⁻¹
kon (human His-FBG): 4.1e+06 M⁻¹ s⁻¹
Kd [11]: 0.32 nM
koff [11]: 0.00078 s⁻¹
kon [11]: 2.6e+06 M⁻¹ s⁻¹
